The labels stand for the following.
T1: TNF-like 1A (TL1A) (UniProt O95150 72-251)
T1 construct: Bought soluble TL1A; Biotinylated for yeast display, unlabelled in SPR and ELISA; also called TL1A cytokine
T1 sequence (looked up): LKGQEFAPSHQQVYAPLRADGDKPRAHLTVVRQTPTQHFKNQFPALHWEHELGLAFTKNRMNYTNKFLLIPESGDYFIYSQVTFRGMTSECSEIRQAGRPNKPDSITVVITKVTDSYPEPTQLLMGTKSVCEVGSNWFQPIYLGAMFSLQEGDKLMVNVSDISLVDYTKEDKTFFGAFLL

B1: DR3 (receptor, human, UniProt Q93038 25-199, looked up)
receptor extracellular domain displayed on the yeast surface as an Aga2 fusion: QGGTRSPRCDCAGDFHKKIGLFCCRGCPAGHYLKAPCTEPCGNSTCLVCPQDTFLAWENHHNSECARCQACDEQASQVALENCSAVADTRCGCKPGWFVECQVSQCVSSSPFYCQPCLDCGALHRHTRLLCSRRDTDCGTCLPGFYEHGDGCVSCPTSTLGSCPERCAAVCGWRQ
notes: extracellular domain, wild type, Aga2 fusion on EBY100 yeast
B2: WT DR3 extracellular domain fused with human IgG1 Fc (DR3-Fc WT) (Fc fusion)
chain: GGTRSPRCDCAGDFHKKIGLFCCRGCPAGHYLKAPCTEPCGNSTCLVCPQDTFLAWENHHNSECARCQACDEQASQVALENCSAVADTRCGCKPGWFVECQVSQCVSSSPFYCQPCLDCGALHRHTRLLCSRRDTDCGTCLPGFYEHGDGCVSCPTSTLGSCPERCAAVCGWRQIEGRMDRSVECPPCPAPPVAGPSVFLFPPKPKDTLMISRTPEVTCVVVDVSHEDPEVKFNWYVDGVEVHNAKTKPREEQYNSTYRVVSVLTVLHQDWLNGKEYKCKVSNKGLPSSIEKTISKAKGQPREPQVYTLPPSREEMTKNQVSLTCLVKGFYPSDIAVEWESNGQPENNYKTTPPVLDSDGSFFLYSKLTVDKSRWQQGNVFSCSVMHEGLHNHYTQKSLSLSPGK
notes: also called DR3 WT; soluble DR3 WT
B3: DR3 variant having SEQ ID NO: 3, fused with human IgG1 Fc (Fc fusion)
chain: B2 chain with I18T, V47P, D51G, N61E, K93E, Q104P, L129P
notes: Linker and Fc as for m2
B4: DR3 variant having SEQ ID NO: 2, fused with human IgG1 Fc (Fc fusion)
chain: B2 chain with I18Y, V47P, D51G, A65T, K93A, Q101S, L129P
notes: Linker and Fc as for m2
B5: DR3 variant having SEQ ID NO: 5, fused with human IgG1 Fc (Fc fusion)
chain: B2 chain with E38K, V47P, W56R, A65T, K93A, Q101S, L129P
notes: Linker and Fc as for m2
B6: DR3 variant having SEQ ID NO: 4, fused with human IgG1 Fc (Fc fusion)
chain: B2 chain with I18Y, D51G, K93E, L129P
notes: Linker and Fc as for m2
B7: DR3 variant having SEQ ID NO: 7, fused with human IgG1 Fc (Fc fusion)
chain: B2 chain with E38K, V47P, A65T, Q101S
notes: Tested as secreted Fc fusion in HEK293 medium (ELISA screen); Linker and Fc as for m2
B8: DR3 variant having SEQ ID NO: 6, fused with human IgG1 Fc (Fc fusion)
chain: B2 chain with H15Q, V47P, W56R, Q104P
notes: as for B7
B9: DR3 variant having SEQ ID NO: 9, fused with human IgG1 Fc (Fc fusion)
chain: B2 chain with H15Q, V47P, N61E, K93E, Q101S, Q104P, L129P
notes: as for B7

Substitutions are numbered along the chain they refer to.

The target in one experiment is T1, TNF-like 1A (TL1A). Put plainly: flow cytometry of yeast displaying DR3 as Aga2 fusion, incubated with 0.2 uM biotinylated TL1A, detected with streptavidin-APC. On the procedure: FIGS. 3A-B. Screening for improved DR3 mutants using yeast surface display (YSD). […] Expression and TL1A binding are detected by fluorescent antibodies and streptavidin, respectively. (B) Flow cytometry histogram analysis of cell population displaying WT DR3, DR3 mutant library after two rounds (R2) and three rounds of enrichment (R3) for binding to TL1A. Cell population that lacks surface display is shown in black. Analysis of cells was performed following incubation with 0.2 μM of TL1A.
Briefly, EBY100 cells transformed with plasmid pCTCON containing the desired clone were grown in SDCAA media (20 g […], 6.7 g yeast nitrogen base, 5 g casamino acids, 5.4 g Na2HPO4 and 8.56 g NaH2PO4*H2O) at 30° C. to logarithmic phase. Then, 2*10⁶ of cells were washed, resuspended in SGCAA induction media (similar to SDCAA but containing galactose instead of […]) and grown at 30° C. with shaking for an additional 18 hours. Induced cells (1*10⁶) were collected by centrifugation, washed with PBSF (PBS+1 g/L BSA) and incubated for 1 hour at […] with 0.2 μM TL1A (R&D Systems) that was biotinylated using biotin labeling kit (Pierce) according to manufacturer's procedure. […] The labeled cells were washed, resuspended with PBSF and analyzed by flow cytometry (FACS Calibur, BD).
For orientation: A flow cytometer gives signals particle by particle.
Turning to B1, the binding result was “binds”.

A further experiment addresses T1, TNF-like 1A (TL1A). Put plainly: SPR (ProteOn XPR36), DR3-Fc immobilized, TL1A as analyte. On the procedure: The affinity of TL1A binding to DR3 variants was determined by surface plasmon resonance (SPR) measurements on a ProteOn XPR36 (Bio-Rad) instrument. All samples were in PBS containing 2 mM of DTT. A GLC Chip was air-initialized and activated with EDC/S-NHS. 5 μg from each of the DR3 variants were diluted in acetate buffer, pH 5.5, and immobilized onto the chip as a reference and BSA was also loaded onto the chip. After blocking available unbound sites on the chip with ethanolamine, the chip was washed with HBST buffer and rotated. TL1A was run at 30 μl/min for 300 sec at various concentrations (100, 50, 25, 12.5 and 6.25 nM), followed by a 10-min dissociation step. Binding parameters were determined with the Langmuir single binding site model, using the Bio-Rad's proteOn Manager software V2.1.2.05.
Next, the TL1A binding affinity to the different DR3 variants was characterized using surface plasmon resonance (Table 3).
As a reminder, the Kd is the free concentration of one partner at which half of the binding sites on the other are occupied at equilibrium, for simple one-to-one binding. Read a low Kd as a tighter complex. The koff is a measure of how fast the partners let go of each other. A high value points to fast dissociation. As usually defined, the kon is the rate constant with which the complex forms. B2 came in with a Kd of 44.9 nM, a koff of 0.00072 s⁻¹ and an on-rate constant (kon) of 16000 M⁻¹ s⁻¹.

Regarding B3, the “Fold increase in Affinity (against WT)” value turned out to be 6.6 fold, the Kd was found to be 6.79 nM, the koff was found to be 0.000237 s⁻¹ and the kon amounted to 34900 M⁻¹ s⁻¹.

B4: the “Fold increase in Affinity (against WT)” value worked out at 5 fold, the Kd worked out at 8.26 nM, the koff turned out to be 0.000351 s⁻¹ and the kon is 42600 M⁻¹ s⁻¹.

Take B5: the “Fold increase in Affinity (against WT)” value amounted to 1.7 fold; the affinity, expressed as Kd, was 26.9 nM; the koff came out at 0.000643 s⁻¹; the kon worked out at 23900 M⁻¹ s⁻¹.

B6: the “Fold increase in Affinity (against WT)” value was 4.6 fold, the Kd came out at 9.83 nM, the dissociation rate constant (koff) turned out to be 0.000357 s⁻¹ and the kon was determined as 36300 M⁻¹ s⁻¹.

In another experiment the target is T1, TNF-like 1A (TL1A). Put plainly: ELISA screen, HEK293 medium with secreted DR3-Fc on captured TL1A. On the procedure:
The plates were then washed with PBST and blocked by incubation with 150 μl of PBS supplemented with 3% skim milk for 1 hour. Following blocking, the plates were washed and incubated with 100 μl of media of HEK293T transfected with WT or DR3 mutants harvested 48 or 72 hours post transfection, ELISA plates were shaken for additional hour. DR3-Fc (R&D Systems) was added at a concentration of 2 μg/ml as a positive control, and PBS supplemented with 1% BSA served as a negative control. Plates were then washed with PBST, incubated with 100 μl of 0.05 μg/ml of biotinylated goat polyclonal α-DR3 antibodies (R&D Systems), followed by incubation with secondary peroxidase-conjugated streptavidin (Jackson, 1:10000 dilution). Finally, 100 μl of horseradish peroxidase (HRP) chromogenic 3,3′,5,5′-tetramethylbenzidine (TMB) substrate solution (Dako) were added. The reaction was stopped by the addition of 1 M sulfuric acid and recorded at 450 nm using a Tecan Infinite M200 plate reader.
To identify single DR3 mutant candidates with enhanced binding affinity for TL1A, the FACS-enriched library was sub-cloned into a mammalian vector containing leader peptide and fused with human IgG1 Fc. […] Thus, the mammalian based expression of soluble DR3 receptor offers the advantage of maintaining the native protein posttranslational modifications including glycosylation. To obtain high level of DR3 expression in mammalian cells, the leader peptide sequence was optimized (FIG. 4), transfection and expression conditions in HEK293F cells (see Experimental Procedures for details). To facilitate the screening of a relatively large number of DR3 mutants, cells were transfected in 24 plate format and the secreted DR3 was examined for TL1A interaction using ELISA. A fast and sensitive ELISA that is based on immobilizing TL1A on multi-well plates and detecting DR3 binding using specific antibodies was developed (FIG. 5).
A general note: ELISA stands for enzyme-linked immunosorbent assay.
For B7, the binding result is listed as “binds”.

Turning to B8, the binding result is reported as “binds”.

Take B9: the binding result is “binds”.

Source of the values: US20170114118A1 (NATIONAL INSTITUTE FOR BIOTECHNOLOGY I, published 2017).
